Laboratory results published in publication PMC10520083 (2023).
Like-named read-outs stand apart in the source and are kept apart here.

T1: human α7 nicotinic acetylcholine receptor with the ICD replaced by a short linker and a C-terminal Rho1D4 tag … (human, UniProt P36544 23-502, N-linked glycans at Asn23, Asn67 and Asn110)
T1 chain: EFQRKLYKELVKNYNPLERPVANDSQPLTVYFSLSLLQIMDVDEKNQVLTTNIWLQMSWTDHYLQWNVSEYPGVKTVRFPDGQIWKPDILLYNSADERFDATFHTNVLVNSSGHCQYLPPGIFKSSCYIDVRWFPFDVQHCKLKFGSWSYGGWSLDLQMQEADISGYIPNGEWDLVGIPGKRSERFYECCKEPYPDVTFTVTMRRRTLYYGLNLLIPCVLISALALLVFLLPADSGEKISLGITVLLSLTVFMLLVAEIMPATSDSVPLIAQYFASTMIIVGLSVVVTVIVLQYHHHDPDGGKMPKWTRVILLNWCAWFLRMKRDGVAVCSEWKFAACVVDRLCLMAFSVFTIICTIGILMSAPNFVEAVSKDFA

B1: nanobody E3 (VHH)
VHH: AVQLQASGGGLVQAGDSLRLSCAASGGTFSHYAVGWFRQAPGKEREFVAAISWSGRSTSFANSVKGRFTISRDSAKNTAYLQMNNLKPEDTAVYCCAPARFGTGSAARDEYDDCGQGTQVTVSS
B2: nanobody E3 E110Q (VHH)
VHH: AVQLQASGGGLVQAGDSLRLSCAASGGTFSHYAVGWFRQAPGKEREFVAAISWSGRSTSFANSVKGRFTISRDSAKNTAYLQMNNLKPEDTAVYCCAPARFGTGSAARDQYDDCGQGTQVTVSS
B3: nanobody E3 R56A (VHH)
VHH: AVQLQASGGGLVQAGDSLRLSCAASGGTFSHYAVGWFRQAPGKEREFVAAISWSGASTSFANSVKGRFTISRDSAKNTAYLQMNNLKPEDTAVYCCAPARFGTGSAARDEYDDCGQGTQVTVSS
B4: nanobody C4 (VHH)
VHH: QVQLVESGGGLVQAGGSLKLSCAASGFTFAHYAMVWFRQAPGKEREFVAGISWSGASTYYASSVKGRFTISRDNAKNTVYLQMNSLKPEDTAVYYVAAARFGVGVDDDYSYWGQGTQVTVSS

How the values were obtained:
[1] = molecular target: human α7 nicotinic acetylcholine receptor with the ICD replaced by a short linker and a C-terminal Rho1D4 tag (α7∆ICDcryo), reconstituted in MSP1E3D1 nanodiscs (human) (UniProt P36544); test: cryo-EM structure; 1 µM α7 pentamer in MSP1E3D1 nanodiscs with 50 µM nanobody (50-fold excess), no nicotine (C4-Apo, E3-Apo)
[2] = molecular target: T1, human α7 nicotinic acetylcholine …; test: SPR; α7 prep 2
[3] = molecular target: human α7 nicotinic acetylcholine receptor with the ICD replaced by a short linker and a C-terminal Rho1D4 tag (α7∆ICDcryo), reconstituted in MSP1E3D1 nanodiscs (human) (UniProt P36544); test: cryo-EM structure; 1 µM α7 pentamer in MSP1E3D1 nanodiscs with 50 µM nanobody (50-fold excess) and 100 µM nicotine (C4-Nic, E3-Nic)
[4] = molecular target: T1, human α7 nicotinic acetylcholine …; test: SPR; α7 prep 1
[5] = molecular target: human α7 nicotinic acetylcholine receptor with the ICD replaced by a short linker and a C-terminal Rho1D4 tag (α7∆ICDcryo), reconstituted in MSP1E3D1 nanodiscs (human) (UniProt P36544); test: SPR; single-cycle kinetics, Biacore T200; α7-nanodiscs captured on anti-Rho tag antibody 1D4 immobilised on CM5; nanobodies injected (five increasing concentrations, 600 s each, 30 µl/min); buffer A (20 mM Tris, 250 mM NaCl) pH 8, 25 °C
[6] = molecular target: T1, human α7 nicotinic acetylcholine …; test: SPR; α7 prep 1
[7] = molecular target: T1, human α7 nicotinic acetylcholine …; test: SPR; α7 prep 1, + 100 µM nicotine
[8] = molecular target: T1, human α7 nicotinic acetylcholine …; test: SPR; α7 prep 1, + 100 µM nicotine
[9] = molecular target: human α7 nicotinic acetylcholine receptor L247T mutant (human) (UniProt P36544)
[10] = molecular target: T1, human α7 nicotinic acetylcholine …; test: SPR; α7 prep 2
[11] = molecular target: human α7 nicotinic acetylcholine receptor with the ICD replaced by a short linker and a C-terminal Rho1D4 tag (α7∆ICDcryo), reconstituted in MSP1E3D1 nanodiscs (human) (UniProt P36544); test: cryo-EM structure; 1 µM α7 pentamer in MSP1E3D1 nanodiscs with a sub-saturating 10 µM nanobody, no nicotine (C4partial-Apo; 2D classification for E3)
[12] = molecular target: full-length human α7 nicotinic acetylcholine receptor fused to a Rho1D4 tag at its C-terminus (α7FLcryo) (human) (UniProt P36544); test: cryo-EM structure; 1 µM α7 pentamer in MSP1E3D1 nanodiscs with 50 µM nanobody (50-fold excess) and 100 µM nicotine (C4-Nic, E3-Nic)
[13] = molecular target: human α7 nicotinic acetylcholine receptor with the ICD replaced by a short linker and a C-terminal Rho1D4 tag (α7∆ICDcryo), reconstituted in MSP1E3D1 nanodiscs (human) (UniProt P36544); test: SPR; single-cycle kinetics, Biacore T200; α7-nanodiscs captured on anti-Rho tag antibody 1D4 immobilised on CM5; nanobodies injected (five increasing concentrations, 600 s each, 30 µl/min); buffer A (20 mM Tris, 250 mM NaCl) pH 8, 25 °C; remark: listed apart in the source

| Molecule | koff [2] [s⁻¹] | Kd [5] [nM] | koff [5] [s⁻¹] | kon [5] [M⁻¹ s⁻¹] | stoichiometry N (nanobodies per receptor molecule) [5] | stoichiometry N (nanobodies per α7 pentamer) [1] | Kd [10] [nM] | also measured |
| --- | --- | --- | --- | --- | --- | --- | --- | --- |
| human α7 nicotinic acetylcholine receptor with the ICD replaced by a short linker and a C-terminal Rho1D4 tag (α7∆ICDcryo), reconstituted in MSP1E3D1 nanodiscs (from UniProt P36544 23-502) | – | – | – | – | – | – | – | stoichiometry N [1]: 5 |
| B1 | 0.019 | 1 | 0.0119 | 1.1e+07 | < 3 | 5 | – | stoichiometry N (nanobodies per α7 pentamer) [3]: 5; koff [4]: 0.013 s⁻¹; Kd [6]: 8 nM; koff [7]: 0.0085 s⁻¹; Kd [8]: 7.4 nM; increase of the holding current during pre-application of E3 in the absence of ACh (direct activation, TEVC, Xenopus oocytes) (% of the response to 0.3 µM ACh) [9]: 6 |
| B2 | 0.011 | – | – | – | – | – | 0.62 | – |
| B3 | 0.01 | – | – | – | – | – | 1.5 | – |
| B4 | – | 0.2 | 0.00024 | 1.2e+06 | < 3 | 5 | – | stoichiometry N (nanobodies per α7 pentamer) [11]: 3; stoichiometry N (nanobodies per α7 pentamer) [12]: 5; Kd [13]: 0.1 nM |
